Experimental data: patent US20230287088A1
Read-outs that look alike come from different tables or passages of the source.

Assays:
[1] = molecular target: T1, SARS-CoV-2 spike protein (wild-type) on VSV pseudovirus (SARS-CoV-2), P0DTC2
[2] = molecular target: T1, SARS-CoV-2 spike protein (wild-type) on …; remark: listed apart in the source
[3] = molecular target: T1, SARS-CoV-2 spike protein (wild-type) on …; remark: listed apart in the source
[4] = molecular target: T1, SARS-CoV-2 spike protein (wild-type) on …; remark: listed apart in the source
[5] = molecular target: T1, SARS-CoV-2 spike protein (wild-type) on …; remark: listed apart in the source
[6] = molecular target: T1, SARS-CoV-2 spike protein (wild-type) on …; remark: listed apart in the source
[7] = molecular target: T1, SARS-CoV-2 spike protein (wild-type) on …; assay: cell-based or functional assay
[8] = molecular target: T1, SARS-CoV-2 spike protein (wild-type) on …; remark: listed apart in the source

B1: 465: LC of anti-S1 antibody with a C-terminal fusion of a scFv of P043.A.00017.E07 (bispecific antibody)
heavy: QMQLVQSGTEVKKPGESLKISCKGSGYGFITYWIGWVRQMPGKGLEWMGIIYPGDSETRYSPSFQGQVTISADKSINTAYLQWSSLKASDTAIYYCAGGSGISTPMDVWGQGTTVTVASTKGPSVFPLAPSSKSTSGGTAALGCLVKDYFPEPVTVSWNSGALTSGVHTFPAVLQSSGLYSLSSVVTVPSSSLGTQTYICNVNHKPSNTKVDKRVEPKSCDKTHTCPPCPAPEAAGGPSVFLFPPKPKDTLMISRTPEVTCVVVDVSHEDPEVKFNWYVDGVEVHNAKTKPREEQYNSTYRVVSVLTVLHQDWLNGKEYKCKVSNKALPAPIEKTISKAKGQPREPQVYTLPPSREEMTKNQVSLTCLVKGFYPSDIAVEWESNGQPENNYKTTPPVLDSDGSFFLYSKLTVDKSRWQQGNVFSCSVLHEALHSHYTQKSLSLSPGK
light: not shown
IC50 (pVNT, infected cells/16 fields) [1]: 0.21 ng/ml
IC90 (pVNT, infected cells/16 fields) [1]: 1.05 ng/ml

B2: 467: LC of anti-S1 antibody with a C-terminal fusion of a scFv of P043.A.00024.C11 (bispecific antibody)
heavy: QMQLVQSGTEVKKPGESLKISCKGSGYGFITYWIGWVRQMPGKGLEWMGIIYPGDSETRYSPSFQGQVTISADKSINTAYLQWSSLKASDTAIYYCAGGSGISTPMDVWGQGTTVTVASTKGPSVFPLAPSSKSTSGGTAALGCLVKDYFPEPVTVSWNSGALTSGVHTFPAVLQSSGLYSLSSVVTVPSSSLGTQTYICNVNHKPSNTKVDKRVEPKSCDKTHTCPPCPAPEAAGGPSVFLFPPKPKDTLMISRTPEVTCVVVDVSHEDPEVKFNWYVDGVEVHNAKTKPREEQYNSTYRVVSVLTVLHQDWLNGKEYKCKVSNKALPAPIEKTISKAKGQPREPQVYTLPPSREEMTKNQVSLTCLVKGFYPSDIAVEWESNGQPENNYKTTPPVLDSDGSFFLYSKLTVDKSRWQQGNVFSCSVLHEALHSHYTQKSLSLSPGK
light: not shown
IC50 (pVNT, infected cells/16 fields) [2]: 0.4 µg/ml
IC90 (pVNT, infected cells/16 fields) [2]: 1.19 µg/ml
IC50 (pVNT, infected cells/16 fields) [1]: 0.46 ng/ml
IC90 (pVNT, infected cells/16 fields) [1]: 1.42 ng/ml

B3: P043.A.00047.H08 (protein sample ID 447) (antibody, V domains shown)
VH: QSLEESGGDLVKPGASLTLTCTASGFSFSSDGMCWVRQAPGKGLEWIACIAAGSSGSTYYATWAQGRFTISKSSSTTVTLQMTSLTAADTATYFCAGEDYTGNNYYALWGPGTLVTVSS
VL: AIDMTQTPSPVSAVVGDTVTINCQASENIYSFLAWYQQKPGQPPKLLIYFASKLASGVPSRFKGSGSGTQFTLTISDVHSDDAAIYYCQQTGTYSDADNTFGGGTEVVVK
IC50, pVNT (luciferase RLU), RiboMab in mouse serum, biological replicate 1 [3]: 740 ng/mL
IC50, pVNT (luciferase RLU), RiboMab in mouse serum, biological replicate 2 [3]: 424 ng/mL
IC90, pVNT (luciferase RLU), RiboMab in mouse serum, biological replicate 1 [3]: 6390 ng/mL
IC90, pVNT (luciferase RLU), RiboMab in mouse serum, biological replicate 2 [3]: 4530 ng/mL
IC50, pVNT (luciferase RLU, VERO 76 cells), RiboMab in HEK 293T/17 supernatant [4]: 169 ng/mL
IC90, pVNT (luciferase RLU, VERO 76 cells), RiboMab in HEK 293T/17 supernatant [4]: 7240 ng/mL
IC50 (pVNT, GFP-positive infected cells) [5]: 3.9 µg/ml
IC90 (pVNT, GFP-positive infected cells) [5]: 18.2 µg/ml

B4: P043.A.00095.D06 (protein sample ID 470) (antibody, V domains shown)
VH: QEQLEESGGDLVKPEGSLTLTCTASGFSFSSNYWICWVRQAPGKGLEWIGCIYIGSGDTYYASWAKGRFTISKTSSTTVTLQMTSLTAADTATYFCARSYTPGSYYNMNLWGPGTLVTVSS
VL: DVVMTQTPSSVSAAVGGTVTINCQASQQISNELSWYQQKSGQPPKLLIYDASDLASGVPSRFKGSGSGTEFTLTISDLESADAATYYCQSTGGASSDGNAFGGGTEVVVK
IC50 (read off the curve), Mouse #1 [6]: 0.05 µg/mL
IC50 (read off the curve), Mouse #2 [6]: 0.05 µg/mL
IC50, pVNT (luciferase RLU), RiboMab in mouse serum, biological replicate 1 [3]: 53.6 ng/mL
IC50, pVNT (luciferase RLU), RiboMab in mouse serum, biological replicate 2 [3]: 51.8 ng/mL
IC90, pVNT (luciferase RLU), RiboMab in mouse serum, biological replicate 1 [3]: 310 ng/mL
IC90, pVNT (luciferase RLU), RiboMab in mouse serum, biological replicate 2 [3]: 284 ng/mL
IC90, pVNT (luciferase), RiboMab 470 in HEK 293T/17 supernatant [7]: 449 ng/mL
IC90, pVNT (luciferase), RiboMab 470 in mouse serum [7]: 297 ng/mL
IC50 (read off the curve) [8]: 0.2 µg/mL
IC50, pVNT (luciferase RLU, VERO 76 cells), RiboMab in HEK 293T/17 supernatant [4]: 189 ng/mL
IC50 (pVNT, GFP-positive infected cells) [5]: 0.28 µg/ml
IC90 (pVNT, GFP-positive infected cells) [5]: 2.28 µg/ml

B5: P043.A.00092.C12 (antibody)
heavy chain: QEELKETGGGLVQPGGSLTLSCKASGFDFSSYYMSWVRQAPGKGLEWIGVIYASKGSTDYASWVNGRFTISSDNAQNTVDLQMNSLTAADTATYYCARSKRFYTYGYAGYAYAHYYYGMDLWGPGTLVTVSS
light chain: AIQMTQSPSSLAASVGDTVTITCKASEDIGYGLNWYQQKLGIAPKLLIYGADTLESGVPSRFSGSGSETDYTLTISSVQAEDAGIYYCQQGYSTPLTFGAGTKVEIK
IC50 (pVNT, GFP-positive infected cells) [5]: 0.31 µg/ml
IC90 (pVNT, GFP-positive infected cells) [5]: 3.79 µg/ml

B6: P043.A.00023.E05 (antibody)
heavy chain: QSLEESGGRLVTPGTPLTLTCTVSGFSLSSYAMSWVRQAPGKGLEWIGIISSSGSTYYASWAKGRFTISKTSTTVDLKITSPTTEDTATYFCARDASSRGYYYYYGMDPWGPGTLVTVSS
light chain: AIQMTQSPSSLAASVGDTVTITCKASEDIGYGLNWYQQKLGIAPKLLIYGANTLESGVPSRFSGSGSETDYTLTISSVQAEDAGIYYCQQGYSTPLTFGAGTKVEIK
IC50 (pVNT, GFP-positive infected cells) [5]: 3.75 µg/ml
IC90 (pVNT, GFP-positive infected cells) [5]: 16.6 µg/ml

B7: P043.A.00097.B02 (antibody)
heavy chain: QELVESGGGLVQAGESLKLSCKASGIDFSSYGISWVRQAPGKGLEWIAYIYPGFGITNYANSVKGRFTISSDNAQNTVFLQMTSLTASDTATYFCTRAYASSSGYYIHYFNLWGPGTLVTVSS
light chain: AIQMTQSPSSLAASVGDTVTITCKASEDIGYGLNWYQQKLGIAPKLLIYGANTLESGVPSRFSGSGSETDYTLTISSVQAEDAGIYYCQQAYSTPLTFGAGTKVEIK
IC50 (pVNT, GFP-positive infected cells) [5]: 7.84 µg/ml
IC90 (pVNT, GFP-positive infected cells) [5]: 24.2 µg/ml

B8: P043.A.00024.C11 (protein sample ID 451) (antibody, V domains shown)
VH: QSVEESGGRLVTPGTPLTLTCTVSGFSLSSYAMSWVRQAPGKGLEWIGIISSSGTTYYASWAKGPFTISKTSTTVDLKITSPTTEDTATYFCARGGAGYGYAHYYGMDPWGPGTLVTVSS
VL: AIQMTQSPSSLAASVGDTVTITCKASEDIGYGLNWYQQKLGIAPKLLIYGANTLESGVPSRFSGSGSETDYTLTISSVQAEDAGIYYCQQGYSTPLTFGAGTKVEIK
IC50, pVNT (luciferase RLU, VERO 76 cells), RiboMab in HEK 293T/17 supernatant [4]: 406 ng/mL
IC90, pVNT (luciferase RLU, VERO 76 cells), RiboMab in HEK 293T/17 supernatant [4]: 3810 ng/mL
IC50 (pVNT, GFP-positive infected cells) [5]: 4.74 µg/ml
IC90 (pVNT, GFP-positive infected cells) [5]: 20.6 µg/ml

B9: P043.A.00017.E04 (antibody)
heavy chain: QSVEESGGRLVTPGTPLTLTCTVSGFSLNNYAMNWVRQAPGKGLEWIGIISSSGNTYYANWAKGRFTISKTSTTVDLKITSPTTEDTATYFCARDSYPGYSPYYGMDPWGPGTLVTVSS
light chain: AIQMTQSPSSLAASVGDTVTITCKASEDIAYGLNWYQQKLGITPKLLIYGANTLESGVPSRFSGSGSETHYTLTISSVQAEDAGIYYCQQGYNTPPTFGAGTKVEIK
IC50 (pVNT, GFP-positive infected cells) [5]: 1.19 µg/ml
IC90 (pVNT, GFP-positive infected cells) [5]: 5.35 µg/ml
